Where a chain is given by its changes, count along the chain named.
Legend:
Assay in all cases: ELONA; RPB-ELISA
NL_v2_PPR20 = target: T1, NL_v2_PPR20 (Artificial Sequence); conditions: tags: N-term luciferase, C-term 6xHis; label: 5'-biotin
T1 chain: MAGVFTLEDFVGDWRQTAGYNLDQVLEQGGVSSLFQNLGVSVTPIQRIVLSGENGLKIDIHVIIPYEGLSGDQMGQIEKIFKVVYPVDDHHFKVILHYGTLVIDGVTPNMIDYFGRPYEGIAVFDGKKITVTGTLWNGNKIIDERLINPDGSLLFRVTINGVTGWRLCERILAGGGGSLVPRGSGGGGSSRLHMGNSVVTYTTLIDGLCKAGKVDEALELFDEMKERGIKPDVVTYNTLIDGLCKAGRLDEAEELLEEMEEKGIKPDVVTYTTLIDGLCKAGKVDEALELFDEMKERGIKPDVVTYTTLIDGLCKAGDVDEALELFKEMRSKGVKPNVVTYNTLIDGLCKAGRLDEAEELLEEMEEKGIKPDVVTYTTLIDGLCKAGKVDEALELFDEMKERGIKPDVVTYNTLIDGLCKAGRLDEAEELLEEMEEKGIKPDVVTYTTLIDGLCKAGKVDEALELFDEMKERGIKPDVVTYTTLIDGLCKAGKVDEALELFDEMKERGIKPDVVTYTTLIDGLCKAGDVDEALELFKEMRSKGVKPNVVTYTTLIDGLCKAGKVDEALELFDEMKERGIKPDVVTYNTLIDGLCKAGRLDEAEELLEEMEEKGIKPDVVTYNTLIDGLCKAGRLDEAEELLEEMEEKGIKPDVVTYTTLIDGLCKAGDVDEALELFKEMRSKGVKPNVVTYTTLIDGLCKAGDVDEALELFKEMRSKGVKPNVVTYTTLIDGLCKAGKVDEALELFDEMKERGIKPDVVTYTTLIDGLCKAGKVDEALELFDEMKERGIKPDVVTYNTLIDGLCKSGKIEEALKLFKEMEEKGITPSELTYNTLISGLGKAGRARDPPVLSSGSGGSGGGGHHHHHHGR

v3.1_PPR20 = target: T2, v3.1_PPR20 (Artificial Sequence); conditions: tags: luciferase fusion; label: 5'-biotin
T2 chain: T1 chain with D318K, D528K, D668K, D703K

v3.1_PPR19 = target: T3, v3.1_PPR19 (Artificial Sequence); conditions: tags: luciferase fusion; label: 5'-biotin
T3 chain: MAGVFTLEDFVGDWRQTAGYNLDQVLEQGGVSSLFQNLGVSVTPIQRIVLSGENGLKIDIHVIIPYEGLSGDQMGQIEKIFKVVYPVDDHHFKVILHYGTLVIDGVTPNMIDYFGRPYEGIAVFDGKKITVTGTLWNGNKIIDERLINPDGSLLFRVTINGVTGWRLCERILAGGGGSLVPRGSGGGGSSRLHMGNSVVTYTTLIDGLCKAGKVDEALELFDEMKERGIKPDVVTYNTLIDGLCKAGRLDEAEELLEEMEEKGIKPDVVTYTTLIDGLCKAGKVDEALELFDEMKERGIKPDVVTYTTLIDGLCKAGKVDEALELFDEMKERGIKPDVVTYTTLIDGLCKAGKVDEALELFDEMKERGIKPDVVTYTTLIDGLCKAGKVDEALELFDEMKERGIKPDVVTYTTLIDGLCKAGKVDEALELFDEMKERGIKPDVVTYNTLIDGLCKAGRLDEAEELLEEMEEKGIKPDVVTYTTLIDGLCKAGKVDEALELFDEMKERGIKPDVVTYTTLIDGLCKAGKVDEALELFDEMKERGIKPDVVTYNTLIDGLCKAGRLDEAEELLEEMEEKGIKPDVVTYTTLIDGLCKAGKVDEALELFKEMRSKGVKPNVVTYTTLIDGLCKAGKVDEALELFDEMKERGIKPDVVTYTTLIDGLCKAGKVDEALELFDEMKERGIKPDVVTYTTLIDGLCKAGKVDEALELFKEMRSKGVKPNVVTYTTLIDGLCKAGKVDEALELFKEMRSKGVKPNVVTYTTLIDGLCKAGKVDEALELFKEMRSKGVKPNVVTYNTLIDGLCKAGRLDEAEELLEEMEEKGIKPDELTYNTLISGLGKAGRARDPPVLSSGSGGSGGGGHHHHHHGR

NL_v2_PPR19 = target: T4, NL_v2_PPR19 (Artificial Sequence); conditions: tags: N-term luciferase, C-term 6xHis; label: 5'-biotin
T4 chain: T3 chain with K598D, K703D, K738D, K773D

NL_v2_PPR21 = target: T5, NL_v2_PPR21 (Artificial Sequence); conditions: tags: N-term luciferase, C-term 6xHis; label: 5'-biotin
T5 chain: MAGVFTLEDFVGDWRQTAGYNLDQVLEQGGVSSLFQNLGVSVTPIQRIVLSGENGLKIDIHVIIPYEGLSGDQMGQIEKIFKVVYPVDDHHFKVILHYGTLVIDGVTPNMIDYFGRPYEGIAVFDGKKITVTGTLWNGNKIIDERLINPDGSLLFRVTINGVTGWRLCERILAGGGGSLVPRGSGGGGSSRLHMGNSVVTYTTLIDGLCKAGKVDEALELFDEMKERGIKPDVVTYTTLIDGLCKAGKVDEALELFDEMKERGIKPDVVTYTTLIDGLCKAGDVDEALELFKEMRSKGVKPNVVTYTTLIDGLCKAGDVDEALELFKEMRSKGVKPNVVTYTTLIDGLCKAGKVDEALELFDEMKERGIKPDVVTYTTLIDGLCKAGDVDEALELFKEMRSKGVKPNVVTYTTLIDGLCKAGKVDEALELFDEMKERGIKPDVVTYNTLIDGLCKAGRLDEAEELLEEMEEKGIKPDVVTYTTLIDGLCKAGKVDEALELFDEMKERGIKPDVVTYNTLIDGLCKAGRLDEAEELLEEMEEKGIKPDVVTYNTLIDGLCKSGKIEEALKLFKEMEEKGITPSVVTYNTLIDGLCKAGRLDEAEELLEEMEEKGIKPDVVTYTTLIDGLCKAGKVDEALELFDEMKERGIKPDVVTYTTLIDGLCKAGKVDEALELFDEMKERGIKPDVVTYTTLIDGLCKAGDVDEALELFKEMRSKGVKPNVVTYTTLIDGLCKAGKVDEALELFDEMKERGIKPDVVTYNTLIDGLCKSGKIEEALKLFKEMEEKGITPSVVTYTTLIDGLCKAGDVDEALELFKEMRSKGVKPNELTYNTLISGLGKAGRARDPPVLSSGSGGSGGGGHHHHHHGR

v3.1_PPR21 = target: T6, v3.1_PPR21 (Artificial Sequence); conditions: tags: luciferase fusion; label: 5'-biotin
T6 chain: T5 chain with D283K, D318K, D388K, D703K, D808K

B1: RNA_20 (ssRNA)
RNA: GACAUGCGUGAUGUGGAGUUAAGGCGACUG
NL_v2_PPR20
  binding signal: 1.2e+07 luminescence
v3.1_PPR20
  binding signal: 3.6e+06 luminescence

B2: RNA_19 (ssRNA)
RNA: GACAUGCGUGGGGGUGGUAGGAAAUGACUG
v3.1_PPR19
  binding signal: 1.3e+07 luminescence
NL_v2_PPR19
  binding signal: 1.3e+07 luminescence

B3: RNA_21 (ssRNA)
RNA: GACAUGCGGAAGAGUGUCUGGAGCAGACUG
NL_v2_PPR21
  binding signal: 5e+07 luminescence
v3.1_PPR21
  binding signal: 4.9e+06 luminescence
